Laboratory results as given in publication PMC5836831, “Candidate SNP markers of reproductive potential are predicted by a significant change in the affinity of TATA-binding protein for human gene promoters”.

Experiments:
[1] = target: T1, TATA-binding protein (TBP) (human, UniProt P20226 1-339); experiment: EMSA; settings: EMSA: 20 mM HEPES-KOH pH 7.6, 5 mM MgCl2, 70 mM KCl, 1 mM EDTA, 100 ug/ml BSA, 0.01% NP-40, 5% glycerol, 25 C, 0.3 nM TBP titrated with ODN; stopped-flow: …
[2] = target: T1, TATA-binding protein (TBP); experiment: stopped-flow fluorescence (FRET); EMSA: 20 mM HEPES-KOH pH 7.6, 5 mM MgCl2, 70 mM KCl, 1 mM EDTA, 100 ug/ml BSA, 0.01% NP-40, 5% glycerol, 25 C, 0.3 nM TBP titrated with ODN; stopped-flow: 0.1 uM ODN, 0.1-1.0 uM TBP, buffer not stated; settings: protein: recombinant; label: 5'-TAMRA and 5'-FAM; blunt

T1 sequence (P20226 whole entry): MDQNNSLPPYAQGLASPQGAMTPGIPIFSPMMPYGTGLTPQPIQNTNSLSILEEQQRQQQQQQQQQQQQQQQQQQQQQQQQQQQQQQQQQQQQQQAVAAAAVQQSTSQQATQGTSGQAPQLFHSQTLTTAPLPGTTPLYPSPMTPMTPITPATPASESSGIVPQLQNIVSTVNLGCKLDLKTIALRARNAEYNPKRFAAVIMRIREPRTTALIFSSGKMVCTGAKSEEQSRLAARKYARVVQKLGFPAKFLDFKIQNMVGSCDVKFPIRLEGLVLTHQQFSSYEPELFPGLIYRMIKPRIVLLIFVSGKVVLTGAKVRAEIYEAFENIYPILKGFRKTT

Molecule	Kd [1]	Kd [2]
HBB promoter ODN, minor (rs33981098)	90 nM	–
HBB promoter ODN, ancestral (rs33981098 a)	44 nM	–
TPI1 promoter ODN, ancestral (rs1800202 t) (dsDNA) DNA 1: CTCTATATAAGTGGG DNA 2: CCCACTTATATAGAG	–	1 nM
TPI1 promoter ODN, minor (rs1800202 g) (dsDNA) DNA 1: CTCTATAGAAGTGGG DNA 2: CCCACTTCTATAGAG	–	6 nM
